Reference: patent publication US20250388702A1 (Dana-Farber, published 2025)

B1: Human HHLA2-mIgG2a fusion protein (Fc fusion)
chain: IFPLAFFIYVPMNEQIVIGRLDEDIILPSSFERGSEVVIHWKYQDSYKVHSYYKGSDHLESQDPRYANRTSLFYNEIQNGNASLFFRRVSLLDEGIYTCYVGTAIQVITNKVVLKVGVFLTPVMKYEKRNTNSFLICSVLSVYPRPIITWKMDNTPISENNMEETGSLDSFSINSPLNITGSNSSYECTIENSLLKQTWTGRWTMKDGLHKMQSEHVSLSCQPVNDYFSPNQDFKVTWSRMKSGTFSVLAYYLSSSQNTIINESRFSWNKELINQSDFSMNLMDLNLSDSGEYLCNISSDEYTLLTIHTVHVEPSQETASHN
notes: also called HHLA2-Ig; HHLA2-mouse IgG2a; not shown: mutated at IgG2a L235E, E318A, K320A, K322A
B2: KIR3DL3 mAb 574.2.1G7.9.9 (antibody, IgG2b, V domains shown)
VH: ELKLEESGGGLVQPGGSMKLSCVASGFTFSNYWMNWVRQSPEKGLEWIAEIRLKSNNYATHYAESVKGRFTISRDDSKSSVYLQMNNLRAEDTGIFYCTPFYGSSFPYWGQGTLVTVSA
VL: DIQMTQTTSSLSASLGDRVTISCRASQDISNYLNWYQQKPDGTVKLLIYYTSILQLGVPPRFSGSGSGTDYSLTISNLEQEDIATYFCQQGNTLPFTFGAGTKVELK
notes: Mouse hybridoma antibody, IgG2b; only variable domains given; also called AVS-3701
B3: KIR3DL3 mAb 574.2.8F7.1.7.4 (antibody, IgG1, V domains shown)
VH: DVKLVESGGGLVKPGGSLKLSCAASGFTFSSYCMSWVRQTPEKRLEWVATISSGGNYIYYPDSVKGRFTISRDIAKNTLYLQMSSLKSEDTAMYYCTRGGYDERYFDYWGQGTILTVSS
VL: DIQMTQSPASLSASVGETVTITCRASENIYSYLAWYQQKQGKSPQLLVYNAKTLTEGMPSRFSGSGSGTQFSLRINSLQPEDFGSYYCQHHHGTPRTFGGGTKLEIK
notes: Mouse hybridoma antibody, IgG1; only variable domains given; also called AVS-3700

Key:
[1] = target: T1, KIR3DL1 (UniProt P43629 22-444, limits assumed); assay: cell microarray on transfected HEK293 cells, HHLA2-mIgG2a probe, AF647 anti-mouse IgG detection
T1 construct: whole, on cells
T1 sequence (P43629 22-444 limits assumed): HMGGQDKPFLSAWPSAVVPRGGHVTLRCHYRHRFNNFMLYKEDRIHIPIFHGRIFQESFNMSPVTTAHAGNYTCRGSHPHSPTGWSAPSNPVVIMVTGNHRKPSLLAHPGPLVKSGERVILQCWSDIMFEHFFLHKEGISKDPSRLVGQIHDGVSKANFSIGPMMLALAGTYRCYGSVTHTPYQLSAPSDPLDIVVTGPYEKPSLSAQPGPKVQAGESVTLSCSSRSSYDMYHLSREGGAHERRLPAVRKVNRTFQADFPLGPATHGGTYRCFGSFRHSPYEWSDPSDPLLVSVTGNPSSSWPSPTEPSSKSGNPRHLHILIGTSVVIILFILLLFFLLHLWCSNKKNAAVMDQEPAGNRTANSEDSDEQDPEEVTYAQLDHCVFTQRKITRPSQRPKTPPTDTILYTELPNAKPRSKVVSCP
Experimental: (§1) A library of ˜5500 full length cDNA clones covering more than 3,500 different plasma membrane proteins was arrayed in duplicate across 13 microarray slides (“slide sets”). Human HEK293 cells were grown above the cDNA clones and reverse-transfected. An expression vector (pIRES-hEGFR-IRES-ZsGreen1) was spotted in quadruplicate on every slide and was used to ensure that a minimal threshold of transfection efficiency had been achieved or exceeded on every slide.
(§2) Two replicate slides were screened for each of the 13 slide sets. Fluorescent images were analyzed and quantitated (for transfection efficiency) using ImageQuant software (GE). A protein ‘hit’ was defined as duplicate spots showing a raised signal compared to background levels. This was achieved by visual inspection using the images gridded on the ImageQuant software.

[2] = target: T2, KIR3DL2 (UniProt P43630 22-455, limits assumed); assay: as above
T2 construct: whole, on cells
T2 sequence (P43630 22-455 limits assumed): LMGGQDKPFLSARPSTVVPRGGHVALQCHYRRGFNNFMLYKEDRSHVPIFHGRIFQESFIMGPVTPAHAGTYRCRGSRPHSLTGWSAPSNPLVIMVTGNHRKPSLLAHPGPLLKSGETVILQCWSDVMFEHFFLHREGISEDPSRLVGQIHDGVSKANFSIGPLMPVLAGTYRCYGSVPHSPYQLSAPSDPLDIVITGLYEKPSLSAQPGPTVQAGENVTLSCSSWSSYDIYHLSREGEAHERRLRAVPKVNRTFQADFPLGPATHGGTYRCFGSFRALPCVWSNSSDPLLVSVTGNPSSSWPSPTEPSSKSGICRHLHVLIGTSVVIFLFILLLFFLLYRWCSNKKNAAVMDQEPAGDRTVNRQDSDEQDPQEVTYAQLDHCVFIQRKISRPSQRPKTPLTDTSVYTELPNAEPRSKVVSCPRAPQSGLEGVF
Experimental: as §1, §2

[3] = target: T3, KIR2DL1 (UniProt P43626 22-348, limits assumed); assay: as above
T3 construct: whole, on cells
T3 sequence (P43626 22-348 limits assumed): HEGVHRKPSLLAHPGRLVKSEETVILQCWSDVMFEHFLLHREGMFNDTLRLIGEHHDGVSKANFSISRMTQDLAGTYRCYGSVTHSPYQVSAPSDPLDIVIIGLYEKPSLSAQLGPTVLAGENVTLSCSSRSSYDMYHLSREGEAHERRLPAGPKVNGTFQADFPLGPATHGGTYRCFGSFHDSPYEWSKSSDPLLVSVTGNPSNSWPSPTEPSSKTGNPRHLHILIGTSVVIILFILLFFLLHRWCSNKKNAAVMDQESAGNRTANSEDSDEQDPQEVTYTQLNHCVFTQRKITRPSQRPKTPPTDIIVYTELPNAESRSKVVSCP
Experimental: as §1, §2

[4] = target: T4, KIR2DL2 (UniProt P43627 22-348, limits assumed); assay: as above
T4 construct: whole, on cells
T4 sequence (P43627 22-348 limits assumed): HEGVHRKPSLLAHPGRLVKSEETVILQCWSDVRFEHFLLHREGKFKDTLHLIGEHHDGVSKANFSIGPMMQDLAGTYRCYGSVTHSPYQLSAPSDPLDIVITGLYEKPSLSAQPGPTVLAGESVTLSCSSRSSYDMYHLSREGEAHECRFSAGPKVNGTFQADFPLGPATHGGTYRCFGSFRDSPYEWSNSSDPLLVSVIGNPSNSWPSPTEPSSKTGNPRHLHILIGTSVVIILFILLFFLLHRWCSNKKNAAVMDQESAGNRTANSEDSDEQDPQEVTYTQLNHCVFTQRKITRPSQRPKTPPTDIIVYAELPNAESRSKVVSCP
Experimental: as §1, §2

[5] = target: T5, KIR2DL4 (UniProt Q99706 22-377, limits assumed); assay: as above
T5 construct: whole, on cells
T5 sequence (Q99706 22-377 limits assumed): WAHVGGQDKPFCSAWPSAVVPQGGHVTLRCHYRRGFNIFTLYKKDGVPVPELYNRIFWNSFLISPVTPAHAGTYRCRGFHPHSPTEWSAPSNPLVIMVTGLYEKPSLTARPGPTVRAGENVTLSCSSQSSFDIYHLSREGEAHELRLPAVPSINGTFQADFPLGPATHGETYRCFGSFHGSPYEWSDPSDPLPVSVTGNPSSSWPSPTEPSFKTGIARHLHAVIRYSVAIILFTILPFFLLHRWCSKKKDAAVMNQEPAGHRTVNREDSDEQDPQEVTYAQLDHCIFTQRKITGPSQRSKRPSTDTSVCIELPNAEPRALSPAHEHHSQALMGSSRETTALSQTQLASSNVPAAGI
Experimental: as §1, §2

[6] = target: T6, KIR2DL5A (UniProt Q8N109 22-375, limits assumed); assay: as above
T6 construct: whole, on cells
T6 sequence (Q8N109 22-375 limits assumed): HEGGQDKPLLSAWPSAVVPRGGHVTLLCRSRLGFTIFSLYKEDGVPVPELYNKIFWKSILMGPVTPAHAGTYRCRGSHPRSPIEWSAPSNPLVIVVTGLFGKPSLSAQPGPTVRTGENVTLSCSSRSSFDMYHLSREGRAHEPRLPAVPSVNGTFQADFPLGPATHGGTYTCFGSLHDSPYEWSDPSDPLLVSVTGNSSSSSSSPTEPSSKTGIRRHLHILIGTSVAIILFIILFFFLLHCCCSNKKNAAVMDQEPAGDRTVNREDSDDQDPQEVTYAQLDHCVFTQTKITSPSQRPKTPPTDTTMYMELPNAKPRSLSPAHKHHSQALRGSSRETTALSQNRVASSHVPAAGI
Experimental: as §1, §2

[7] = target: T7, KIR2DL5B (UniProt Q8NHK3 22-375, limits assumed); assay: as above
T7 construct: whole, on cells
T7 sequence (Q8NHK3 22-375 limits assumed): as the sequence (Q8N109 22-375 limits assumed) above, with N152D, G174S counted along it
Experimental: as §1, §2

[8] = target: T8, Human HHLA2 (human, UniProt Q9UM44 23-414); assay: as above
T8 construct: also called B7-H7; B7-H5
T8 sequence: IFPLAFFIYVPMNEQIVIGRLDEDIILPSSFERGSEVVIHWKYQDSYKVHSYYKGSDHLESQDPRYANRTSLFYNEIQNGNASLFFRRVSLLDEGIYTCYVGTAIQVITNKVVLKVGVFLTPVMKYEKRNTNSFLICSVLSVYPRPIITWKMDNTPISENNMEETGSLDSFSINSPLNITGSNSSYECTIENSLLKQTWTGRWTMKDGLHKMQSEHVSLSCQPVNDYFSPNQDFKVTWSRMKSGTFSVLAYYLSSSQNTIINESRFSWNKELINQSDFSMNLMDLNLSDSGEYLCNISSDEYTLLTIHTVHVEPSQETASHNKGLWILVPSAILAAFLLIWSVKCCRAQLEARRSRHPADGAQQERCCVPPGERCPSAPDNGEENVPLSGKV
Experimental: as §1, §2

[9] = target: T9, EGFR (human, UniProt P00533 25-1210); assay: as above
T9 construct: whole, on cells; also called hEGFR
Experimental: as §1, §2

[10] = target: T10, Human KIR3DL3 (human, UniProt Q8N743 26-410); assay: cell-based or functional assay
T10 sequence (Q8N743 26-410 H321N limits assumed): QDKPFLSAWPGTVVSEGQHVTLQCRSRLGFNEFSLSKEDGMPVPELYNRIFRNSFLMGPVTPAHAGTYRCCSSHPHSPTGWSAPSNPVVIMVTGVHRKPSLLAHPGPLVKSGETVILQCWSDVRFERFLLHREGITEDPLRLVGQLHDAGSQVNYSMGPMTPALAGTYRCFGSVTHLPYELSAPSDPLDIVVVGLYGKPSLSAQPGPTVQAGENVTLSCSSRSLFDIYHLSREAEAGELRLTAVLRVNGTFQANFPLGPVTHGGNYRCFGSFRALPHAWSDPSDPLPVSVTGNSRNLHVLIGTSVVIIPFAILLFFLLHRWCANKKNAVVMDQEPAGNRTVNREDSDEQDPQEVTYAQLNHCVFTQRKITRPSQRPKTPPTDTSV

[11] = target: T1, KIR3DL1; assay: HEK293 cell microarray
Experimental: (§3) Replicate microarray slides expressing a complete KIR family cDNA panel were fixed and blocked with buffer containing PBS/0.5% BSA and incubated for 1 hour at room temperature with individual KIR3DL3 mAb hybridoma supernatants at 1:5, 1:25 and 1:250 dilutions in PBS/0.1% BSA. Cell arrays were washed with PBS and incubated for 1 hour at room temperature in PBS/0.1% BSA containing AF647-conjugated goat anti-mouse IgG (H+L) (Life Technologies, A21235). Slides were washed with PBS, dried, and imaged for ZsGreen1 and AF647 fluorescence.
as §3, with “In Table 4, replicate” for “Replicate”, “the” for “a complete”, “panel (as in FIG. 1A, FIG. 2B, and FIG. 2C)” for “panel”

[12] = target: T2, KIR3DL2; assay: HEK293 cell microarray
Experimental: as §3
as §3, with “In Table 4, replicate” for “Replicate”, “the” for “a complete”, “panel (as in FIG. 1A, FIG. 2B, and FIG. 2C)” for “panel”

[13] = target: T3, KIR2DL1; assay: HEK293 cell microarray
Experimental: as §3
as §3, with “In Table 4, replicate” for “Replicate”, “the” for “a complete”, “panel (as in FIG. 1A, FIG. 2B, and FIG. 2C)” for “panel”

[14] = target: T4, KIR2DL2; assay: HEK293 cell microarray
Experimental: as §3
as §3, with “In Table 4, replicate” for “Replicate”, “the” for “a complete”, “panel (as in FIG. 1A, FIG. 2B, and FIG. 2C)” for “panel”

[15] = target: T11, KIR2DL3 (UniProt P43628 22-341, limits assumed); assay: HEK293 cell microarray
T11 construct: whole, on cells
T11 sequence (P43628 22-341 limits assumed): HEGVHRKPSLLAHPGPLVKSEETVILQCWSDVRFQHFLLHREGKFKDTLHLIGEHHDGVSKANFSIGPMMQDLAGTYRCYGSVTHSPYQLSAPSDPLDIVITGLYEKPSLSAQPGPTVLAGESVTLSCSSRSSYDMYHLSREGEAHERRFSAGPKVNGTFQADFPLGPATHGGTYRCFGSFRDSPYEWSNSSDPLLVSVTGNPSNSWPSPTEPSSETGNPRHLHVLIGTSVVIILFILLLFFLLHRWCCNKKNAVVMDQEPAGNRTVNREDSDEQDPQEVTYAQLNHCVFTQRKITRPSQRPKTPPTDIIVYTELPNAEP
Experimental: as §3
as §3, with “In Table 4, replicate” for “Replicate”, “the” for “a complete”, “panel (as in FIG. 1A, FIG. 2B, and FIG. 2C)” for “panel”

[16] = target: T5, KIR2DL4; assay: HEK293 cell microarray
Experimental: as §3
as §3, with “In Table 4, replicate” for “Replicate”, “the” for “a complete”, “panel (as in FIG. 1A, FIG. 2B, and FIG. 2C)” for “panel”

[17] = target: T6, KIR2DL5A; assay: HEK293 cell microarray
Experimental: as §3
as §3, with “In Table 4, replicate” for “Replicate”, “the” for “a complete”, “panel (as in FIG. 1A, FIG. 2B, and FIG. 2C)” for “panel”

[18] = target: T7, KIR2DL5B; assay: HEK293 cell microarray
Experimental: as §3
as §3, with “In Table 4, replicate” for “Replicate”, “the” for “a complete”, “panel (as in FIG. 1A, FIG. 2B, and FIG. 2C)” for “panel”

[19] = target: T12, KIR2DS1 (UniProt Q14954 22-304, limits assumed); assay: HEK293 cell microarray
T12 construct: whole, on cells
T12 sequence (Q14954 22-304 limits assumed): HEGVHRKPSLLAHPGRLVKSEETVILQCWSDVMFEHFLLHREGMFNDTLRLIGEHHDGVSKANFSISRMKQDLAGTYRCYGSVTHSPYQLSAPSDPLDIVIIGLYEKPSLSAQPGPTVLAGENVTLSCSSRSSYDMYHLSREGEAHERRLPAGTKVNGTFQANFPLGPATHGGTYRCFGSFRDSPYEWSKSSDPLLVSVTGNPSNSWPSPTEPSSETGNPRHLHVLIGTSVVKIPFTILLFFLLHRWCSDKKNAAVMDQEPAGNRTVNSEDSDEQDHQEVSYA
Experimental: as §3
as §3, with “In Table 4, replicate” for “Replicate”, “the” for “a complete”, “panel (as in FIG. 1A, FIG. 2B, and FIG. 2C)” for “panel”

[20] = target: T13, KIR2DS2 (UniProt P43631 22-304, limits assumed); assay: HEK293 cell microarray
T13 construct: whole, on cells
T13 sequence (P43631 22-304 limits assumed): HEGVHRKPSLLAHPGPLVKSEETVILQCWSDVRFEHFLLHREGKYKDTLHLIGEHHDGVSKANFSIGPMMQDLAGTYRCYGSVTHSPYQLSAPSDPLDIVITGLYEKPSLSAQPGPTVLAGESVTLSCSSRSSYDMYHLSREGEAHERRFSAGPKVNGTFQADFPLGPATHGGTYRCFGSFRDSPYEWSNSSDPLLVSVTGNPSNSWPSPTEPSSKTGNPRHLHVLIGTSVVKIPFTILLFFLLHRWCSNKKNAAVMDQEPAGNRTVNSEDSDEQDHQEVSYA
Experimental: as §3
as §3, with “In Table 4, replicate” for “Replicate”, “the” for “a complete”, “panel (as in FIG. 1A, FIG. 2B, and FIG. 2C)” for “panel”

[21] = target: T14, KIR2DS3 (UniProt Q14952 22-304, limits assumed); assay: HEK293 cell microarray
T14 construct: whole, on cells
T14 sequence (Q14952 22-304 limits assumed): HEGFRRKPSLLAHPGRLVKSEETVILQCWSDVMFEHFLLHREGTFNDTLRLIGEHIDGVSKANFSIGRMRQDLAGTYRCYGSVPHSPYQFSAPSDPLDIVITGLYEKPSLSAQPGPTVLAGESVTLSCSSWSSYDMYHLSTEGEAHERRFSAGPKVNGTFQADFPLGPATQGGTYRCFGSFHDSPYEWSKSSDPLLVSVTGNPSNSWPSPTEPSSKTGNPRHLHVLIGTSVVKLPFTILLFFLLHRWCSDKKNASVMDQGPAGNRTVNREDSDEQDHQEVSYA
Experimental: as §3
as §3, with “In Table 4, replicate” for “Replicate”, “the” for “a complete”, “panel (as in FIG. 1A, FIG. 2B, and FIG. 2C)” for “panel”

[22] = target: T15, KIR2DS5 (UniProt Q14953 22-304, limits assumed); assay: HEK293 cell microarray
T15 construct: whole, on cells
T15 sequence (Q14953 22-304 limits assumed): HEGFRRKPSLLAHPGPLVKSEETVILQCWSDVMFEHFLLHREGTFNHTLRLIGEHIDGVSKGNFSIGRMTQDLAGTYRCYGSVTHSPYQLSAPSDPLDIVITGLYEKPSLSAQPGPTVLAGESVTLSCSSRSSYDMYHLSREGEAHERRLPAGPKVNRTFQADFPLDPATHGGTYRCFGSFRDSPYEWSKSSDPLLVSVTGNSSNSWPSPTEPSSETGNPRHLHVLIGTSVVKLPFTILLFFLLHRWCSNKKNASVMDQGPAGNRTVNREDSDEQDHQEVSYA
Experimental: as §3
as §3, with “In Table 4, replicate” for “Replicate”, “the” for “a complete”, “panel (as in FIG. 1A, FIG. 2B, and FIG. 2C)” for “panel”

[23] = target: T16, KIR3DS1 (UniProt Q14943 22-382, limits assumed); assay: HEK293 cell microarray
T16 construct: whole, on cells
T16 sequence (Q14943 22-382 limits assumed): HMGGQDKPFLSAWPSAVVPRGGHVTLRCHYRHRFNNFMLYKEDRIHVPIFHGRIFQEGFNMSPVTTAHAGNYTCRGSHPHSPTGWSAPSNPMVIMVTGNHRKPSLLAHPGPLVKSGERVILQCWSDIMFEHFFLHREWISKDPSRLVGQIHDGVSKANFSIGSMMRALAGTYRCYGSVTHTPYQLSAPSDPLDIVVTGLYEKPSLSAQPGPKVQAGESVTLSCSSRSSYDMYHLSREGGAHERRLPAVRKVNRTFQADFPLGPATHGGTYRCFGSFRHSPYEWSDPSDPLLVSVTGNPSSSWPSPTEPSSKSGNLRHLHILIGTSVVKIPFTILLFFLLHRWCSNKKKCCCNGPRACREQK
Experimental: as §3
as §3, with “In Table 4, replicate” for “Replicate”, “the” for “a complete”, “panel (as in FIG. 1A, FIG. 2B, and FIG. 2C)” for “panel”

[24] = target: T10, Human KIR3DL3; assay: flow cytometry, KIR3DL3-transfected 300.19 cells
[25] = target: T10, Human KIR3DL3; assay: flow cytometry, KIR3DL3-transfected 300.19 cells; remark: listed apart in the source
[26] = target: T10, Human KIR3DL3; assay: flow cytometry; blockade of HHLA2-mIgG2a binding to KIR3DL3-transfected cells
Experimental: (§4) The indicated concentrations of KIR3DL3 mAbs were pre-incubated with KIR3DL3 transfected 300.19 cells for 30 minutes at 4° C. […] EC50 and IC50 analysis were conducted using GraphPad Prism®.

[27] = target: T10, Human KIR3DL3; assay: flow cytometry; blockade of HHLA2-mIgG2a binding to KIR3DL3-transfected 300.19 cells; Table 3; blockade of HHLA2-mouse IgG2a binding to KIR3DL3 transfected 300.19 cells, 4° C
Experimental: as §4

[28] = target: T10, Human KIR3DL3; assay: flow cytometry; blockade of HHLA2-mIgG2a binding to KIR3DL3-transfected 300.19 cells
Experimental: as §4

Binder	Jurkat IL-2 Luciferase, Fold Activation [10]	binding result [11]	binding result [12]	binding result [13]	binding result [14]	binding result [15]	binding result [16]	binding result [17]	binding result [18]	binding result [19]	binding result [20]	binding result [21]	binding result [22]	binding result [23]	Kd [24]	EC50 [25]	IC50 [26]	also measured
B1																		binding result [1]: no binding (tested: 20 ug/ml); binding result [2]: no binding (tested: 20 ug/ml); binding result [3]: no binding (tested: 20 ug/ml); binding result [4]: no binding (tested: 20 ug/ml); binding result [5]: no binding (tested: 20 ug/ml); binding result [6]: no binding (tested: 20 ug/ml); binding result [7]: no binding (tested: 20 ug/ml); binding result [8]: no binding (tested: 20 ug/ml); binding result [9]: no binding (tested: 20 ug/ml)
B2	9.9 fold	no binding (tested: supernatant 1:5, 1:25, 1:250)	no binding (tested: supernatant 1:5, 1:25, 1:250)	no binding (tested: supernatant 1:5, 1:25, 1:250)	no binding (tested: supernatant 1:5, 1:25, 1:250)	no binding (tested: supernatant 1:5, 1:25, 1:250)	no binding (tested: supernatant 1:5, 1:25, 1:250)	no binding (tested: supernatant 1:5, 1:25, 1:250)	no binding (tested: supernatant 1:5, 1:25, 1:250)	no binding (tested: supernatant 1:5, 1:25, 1:250)	no binding (tested: supernatant 1:5, 1:25, 1:250)	no binding (tested: supernatant 1:5, 1:25, 1:250)	no binding (tested: supernatant 1:5, 1:25, 1:250)	no binding (tested: supernatant 1:5, 1:25, 1:250)	0.13 µg/mL	0.13 µg/mL	0.61 µg/mL	Jurkat IL-2 Luciferase Activation, EC50 [10]: 0.37 µg/mL; IC50 [27]: 0.06 µg/mL
B3	1.2 fold	no binding (tested: supernatant 1:5, 1:25, 1:250)	no binding (tested: supernatant 1:5, 1:25, 1:250)	no binding (tested: supernatant 1:5, 1:25, 1:250)	no binding (tested: supernatant 1:5, 1:25, 1:250)	no binding (tested: supernatant 1:5, 1:25, 1:250)	no binding (tested: supernatant 1:5, 1:25, 1:250)	no binding (tested: supernatant 1:5, 1:25, 1:250)	no binding (tested: supernatant 1:5, 1:25, 1:250)	no binding (tested: supernatant 1:5, 1:25, 1:250)	no binding (tested: supernatant 1:5, 1:25, 1:250)	no binding (tested: supernatant 1:5, 1:25, 1:250)	no binding (tested: supernatant 1:5, 1:25, 1:250)	no binding (tested: supernatant 1:5, 1:25, 1:250)	1 µg/mL	1 µg/mL	> 10 µg/mL	IC50 [28]: 27.5 µg/mL
